The target in the test is T1, full-length muPA inhibited at the active site with Glu-Gly-Arg-chloromethylketone (Mus musculus, UniProt P06869, irreversible active site binding ligand Glu-Gly-Arg-chloromethylketone (EGR-cmk) in the active site).
T1 construct: as m2; source: HEK293 6E suspension cells, purified by nickel-Sepharose chromatography; reacted with EGR-cmk
Nature of the test: SPR; BiaCore T100, 22 °C, curves fitted to a 1:1 binding model; who was immobilised is not told (SI Methods). The note with it: both partners purified.

T1 sequence (P06869 21-433): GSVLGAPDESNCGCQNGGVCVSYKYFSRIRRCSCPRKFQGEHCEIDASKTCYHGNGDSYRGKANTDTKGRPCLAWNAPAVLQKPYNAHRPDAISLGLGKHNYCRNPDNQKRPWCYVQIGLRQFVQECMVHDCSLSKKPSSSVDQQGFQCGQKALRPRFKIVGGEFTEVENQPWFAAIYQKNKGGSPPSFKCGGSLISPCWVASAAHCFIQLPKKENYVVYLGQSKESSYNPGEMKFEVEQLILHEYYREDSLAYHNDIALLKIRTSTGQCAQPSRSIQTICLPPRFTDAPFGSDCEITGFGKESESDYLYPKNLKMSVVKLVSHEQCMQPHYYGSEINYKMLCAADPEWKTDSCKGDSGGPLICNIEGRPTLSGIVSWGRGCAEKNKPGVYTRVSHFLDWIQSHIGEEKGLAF

B1: anti-muPA allosteric nanobody Nb7 (VHH)
VHH: QVQLQESGGGLVQPGGSLRLSCAASGFTLGYYAIGWFRRAPGKEREGVSCISSSGGSTNYADSVKGRFTISRDNAKNTVDLQMNSLKPEDTAIYYCAAEWVPPGYGATVQALCNNAGYGMEYWGKGTQVTVSS
notes: from an immunised alpaca phage library; All residues of Nb7 were visible in the electron density of 5LHN; source: E. coli WK6 (su-), produced as described previously
For B1, the “fold change of KD against muPA without EGR-cmk” value was determined as 1.5 fold.

Values taken from article PMC5469797, “Discovery of a novel conformational equilibrium in urokinase-type plasminogen activator” (Scientific Reports, 2017).
